Assay: label from the status in PepcDB records

Sequence | protein production
MNEQIPHDKSLDNSLTLLKEGYLFIKNRTERYNSDLFQARLLGKNFICMTGAEAAKVFYDTDRFQRQNALPKRVQKSLFGVNAIQGMDGSAHIHRKMLFLSLMTPPHQKRLAELMTEEWKAAVTRWEKADEVVLFEEAKEILCRVACYWAGVPLKETEVKERADDFIDMVDAFGAVGPRHWKGRRARPRAEEWIEVMIEDARAGLLKTTSGTALHEMAFHTQEDGSQLDSRMAAIELINVLRPIVAISYFLVFSALALHEHPKYKEWLRSGNSREREMFVQEVRRYYPFGPFLGALVKKDFVWNNCEFKKGTSVLLDLYGTNHDPRLWDHPDEFRPERFAEREENLFDMIPQGGGHAEKGHRCPGEGITIEVMKASLDFLVHQIEYDVPEQSLHYSLARMPSLPESGFVMSGIRRKS | not failed
MASLQLCDGYLLFKPSVSPRFLSQRISHRLIPKASSSPPPSPSPSSSSSSLSFSRRELLYQSAAVSLSLSSIVGPARADEQLSEWERVFLPIDPGVVLLDIAFVPDEPSRGFLLGTRQTLLETKDGGSTWNPRSIPSAEEEDFNYRFNSISFKGKEGWIIGKPAILLYTADAGENWDRIPLSSQLPGDMVFIKATEDKSAEMVTDEGAIYVTSNRGYNWKAAIQETVSATLNRTVSSGISGASYYTGTFSAVNRSPDGRYVAVSSRGNFFLTWEPGQPYWQPHNRAVARRIQNMGWRADGGLWLLVRGGGLYLSKGTGITEEFEEVPVQSRGFGILDVGYRSEEEAWAAGGSGILLRTRNGGKSWNRDKAADNIAANLYAVKFVDDKKGFVLGNDGVLLRYVG | failed
MNAWNTIYDQFNPIAFSLGSIEVHWYGLAYACAIVTAFYMALRMIQKDPKRFPIERKEFESYFLWAELGIVLGARIGYILIYEPNSGYYLTHFWQIFNPFDSHGNFVGIRGMSYHGGLVGFLIASYLYSRKDLKKLLIYLDLIAISLPLGYVFGRIGNFLNQELVGRIVPKDSHLGQIIGIMVDNELRYPSQLIEAFLEGVIVFLMVMWAKKHTKTHGLLIVVYGLGYSLMRFIAEFYREPDSQMGVYFLNLSMGQILSLFMVIVSLGILLYATKNSKKIKENQ | failed
MSLTESARIDGVSLYEIVIPMKIPFQISSGTCYTRRSLVVEIREGDLFGYGESAPFEEPFYLGETLETTKVILKNHLLPMILGKEPLSIEEFNHLIKNGIRGNHFARCGVENAYWDLIAKKNKISLKAMIEKKMKNLGVKQEYLASNNYIESGAALGIPEDGRIETLIHQVEESLQEGYRRIKIKIKPGWDVEPLQETRRAVGDHFPLWTDANSSFELDQWETFKAMDAAKCLFHEQPLHYEALLDLKELGERIETPICLDESLISSRVAEFVAKLGISNIWNIKIQRVGGLLEAIKIYKIATDNGIKLWGGTMPESGLGARFLISLASFRGFVFPADVAASEKWYGKGNDLVENTMTDGKIYVPDEPGASFDMTLSHLEALGKKIWESQRGEGHHHHHH | not failed
MHVEQTRINMQSQGQSHQLPSAAHILLDQNPNSTGSNLVVKQNDIQSLSSVGLLELAHREYQAVDYESAEKHCMQLWRQDSTNTGVLLLLSSIHFQCRRLDKSAQFSTLAIKQNPVLAEAYSNLGNVFKERGQLQEALDNYRRAVRLKPDFIDGYINLAAALVAARDMESAVQAYITALQYNPDLYCVRSDLGNLLKALGRLEEAKACYLKAIETCPGFAVAWSNLGCVFNAQGEIWLAIHHFEKAVTLDPNFLDAYINLGNVLKEARIFDRAVAAYLRALNLSPNNAVVHGNLACVYYEQGLIDLAIDTYRRAIELQPNFPDAYCNLANALKEKGQVKEAEDCYNTALRLCSNHADSLNNLANIKREQGYIEEATRLYLKALEVFPDFAAAHSNLASVLQQQGKLKEALMHYKEAIRIQPTFADAYSNMGNTLKELQDVSGALQCYTRAIQINPAFADAHSNLASIHKDSGNIPEAIQSYRTALKLKPDFPDAYCNLAHCLQIVCDWTDYDIRMKKLVSIVTEQLEKNRLPSVHPHHSMLYPLTHDCRKAIAARHANLCLEKVHVLHKKPYNFLKKLPTKGRLRIGYLSSDFGNHPTSHLMQSVPGLHDRSKVEIFCYALSPDDGTTFRHKISRESENFVDLSQIPCNGKAADKIFNDGIHILVNMNGYTKGARNEIFALRPAPIQVMWLGYPGTSGASFMDYIITDSVTSPLELAYQYSEKLSYMPHTYFIGDHKQMFPHLKERIIVCDKQQSSVVDNVTVINATDLSPLVENTDVKEIKEVVNAQKPVEITHKVAELPNTTQIVSMIATGQVQTSLNGVVVQNGLATTQTNNKAATGEEVPQNIVITTRRQYMLPDDAVVYCNFNQLYKIDPQTLESWVEILKNVPKSVLWLLRFPAVGEQNIKKTVSDFGISPDRVIFSNVAAKEEHVRRGQLADICLDTPLCNGHTTSMDVLWTGTPVVTLPGETLASRVAASQLATLGCPELIARTREEYQNIAIRLGTKKEYLKALRAKVWKARVESPLFDCSQYAKGLEKLFLRMWEKYENGELPDHISAV | failed
MNDRKILVAYFSCSGVTKAVAEKLAAITGADLYEIKPEVPYTEADLDWNDKKSRSSVEMRDALSRPAISGTLFHPEKYEVLFVGFPVWWYIAPTIINTFLESYDFAGKIVVPFATSGGSGIGNCEKNLHKAYPDIVWKDGKLLNGQITRDLVTEWFEKIRL | not failed
MKSYQPKSLLNDLQYYITPPHDCSYLDNKSARMVFLDPIHRIDVVTLSELSRVGFRRSGDFVYRPECHLCRQCLSCRVPVHDFNMNSLQKKAWKRNQDLRMSIVPTHAATSVHYQLYERYINERHADGDMFPPSLDQFEKFLVHSCTESFFLELWKDDRLICVSTCDLMDDGLSAVYTFFDPDENRRSLGVFAILKQLEYVKSIDLDYLYLGYWVPHSQKMNYKSQYIPLELLLDGQWRRLNRALSQEEISQLGESLMTILPSEWNSMIIKLEHHHHHH | failed
ARFYSDGLKLAGTLFVPDDYEPGQKRPAVLICHGRFAIKEWVPSRWTPHFLAAGYVCMVFDYRNLGESEGTPGRIIPDEEVRDARHALTYLQCQPEVDPARIGALGWGLGGGVAVSAAAHDARIKAVVCAIGVANGGRYGRVGMSDAAWAARQEQIAADRRERVLTGRSARLPRTEILGRPDAQRAERHERQNWIDSLVAAVGPERAADPAKLGIPDEITLESMEALYDFAPDAVVDRIAPRPLLIVHARDDHEFPFEHAADMYERAAQPKQLIAVEDAGHLDWIDPAHPSQQVYVPQVVAWMQAQL | not failed
MSRKLQDSAFRLLKKAAYDIDHDRYKKAFENLDKVEKIEKEVNNPEISYHLLFFKGFAKYRIDELEESLALFGKALEISWDLFSKEPEKEDYRSFMRDTIGSIGDILLKLEDPVKAREYISPMKGIFEKTVLGFEKLLESDPENPEYLEDFLKTIEHIGLCFEAGELTGDAVPLFDKKFDLIEKLLKSETEISEHLSSLDDSLMNFGRMCEGEEYLEEEYIEEAKRVYDRAIEIYGKVLDKDPENSETKVYLSYIYRYMAGMYSDQENLVKAEECYKEALGLLESEIENEPENIPVSENIEVSENISVPKNILFSMAIADMYKDSGLIFSDTEDTTKARDYYTKARETFRGLINKYPDLLEADKNLASSLDELAELFSEIGDFESAEMCYKDELNIYENLLQKEPENPENPEYSLKLSDIYRELGDLFAEEEEIEKARAYYDKEIEIYENLHPAEADKLMLEANKADTWNQIGRLYAEEEPETAVQYHERALPIFLEAFESDPTSEFFHEELLETLTVLGTLFKENREFEKAIRMYERVLEVQKQLLEIMPPASCHDHDHDHNLNHSHNLNHSHNLNHTHDLNHDHDLNHDLDHDHEMDHDHALEHCHDLDIETTYFELGVLHSEIGDEEKASVYHRQALERFEQIIAEQSGNPEILILTSGKAFFSGMSLLEKLESENKDSSIARKYYELALRTIEKLYEAYPMNLKLQEMLASFAEQIGDIYRDADKLEETIQEYEYAYRSLKILYENDPENPKHLHHMLGALNNIGIGYSVTDQQEKGKECFEKALALNESLAKSNPEDLNPLRRNFLLFSNYANLLEELGDSKTAKEYRKKAEELDAKLTEEDPEWTSLVEEL | failed
MNFDTIIIGGGMAGLSCALRCLEAGLKTAVIASGQSALHFSSGSIDVLAKTPSGKHVINPMDSLETFSKEYPSHPYAALGKETVERAINWYKTTLSAIGVPLTSQKDGLNHYRLTPLGTMKSTWLSQPFVHQFPMDLEKNKTQKMVLITIDGFRDFQPKLAQDNLKQITQLSDLEIATASISLSAFNDIQRNHCELRSIDISRLLSKRANRQELAYALQQHANPGDLVVLPSIFGNGTGLSYLREIEQLTKLTLCEVPTMPPSLLGIRLEESMKHAFIELGGTMLNGDHVVQGEFSYVDKSDPEHSHYRLNRLFTKNHGDFPLQAKQFVLATGSFFSQGLKANVDSMIEPIFGLDIAQSDKRTDWYSHDFFSTQSHPFLSMGIKTTANFQAIKSGHVIDNLYCAGAILSGYNPILEGSGSGVAISSGFHAAESIIEQLQCSDSLQNNNTKAEVAL | failed
MPGSALLSLQQELRRGFEALKAAKDTFDGGHAECQELVSSLGNLAPQLKALKQVQISETPLSGFPCLQQRLHYKLSLAVDALLAKLAEKMAALQKVWDAFAQQVFTVVQLYEKNTDALDISVCVSRSAVCPSVSDMLEWLQDADRYYRLQLMQSRLLLQTLTPTDLTSMETAPNRWRSVRSARQEERIADALCQVSIFLETE | failed
MRKNHYPLRGYISTNRSKHNLKAHLILVCKYRKKLLQGDLNNFIKSVIDEIATQSNFIIIAMESDIDHLHLMVQYIPRMSISSIISRIKQITTYRVWRDKRFIPLLQKHFWKEKTFWTDGFFVCSIGEANPETIKAYIENQG | failed
MDITMKIAPLLLALGAAGLACCAHAADPKPFTVQQLVKLNKLHSAVVSHDGTKLVYGLKTVNDKGEASSDLYLLDLTQADAKPLQLTSAAGTEHDISFANDDKSIYFLASRSGSSQLFQLPLTGGEAQQVSDLPLDIDGYKLSNDGKQIVLSMRVFPECKDLACSKDKFKAEEERKSTGREYKQLMVRHWDTWEDHARNHLFVGTLNGEKLTKVVDITQGLDTETPPKPFSGMEEVTFTPDGQYVVYSAKAPSKDQAWTTNYDLWQVSVNGGKATNLTADNIAWDAQPTFSSDGRYMAYLAMTKPGFEADRYRIMLRDTSTGQSKEVAPLWDRSPSSLMFAPDNRTLYVTAQDIGQVSIFKVNTQFGDVQSVYSDGSNSLIAIADDQLIFDSKTLVEPGDLYRINTDGQGLKRLTEVNKDKLAEIKFGEFQQFSFKGWNNEDVYGYWIKPANYQEGKKYPIAYLVHGGPQGSFGNGFSGRWNAQLWAGAGYGVVMVDFHGSTGYGQAFTDSISQDWGGKPLEDLQKGLAAVSQQQKWLDPQNACALGGSYGGYMMNWIQGNWNDGFKCLVNHAGLFDMRSMYYVTEEVWFPEHEFGGTYQDNKALYEKFNPVNYVENWKTPMLVIHGEKDFRVPYGQGLAAFSFMQRKGIPSELLIYPDENHWILKPENLEQWYANVFRWMDSWTKK | failed
MLIGAIVAKDDTWLLWAIIIVWATVSLFLEQRYRWASTISGAIIALVGAMLLSNFKVIPMSAPVYDTVWDYIVPLSIPLLLFSSNILKIWKESRRLLVIFFVASIGTMIGTTVGFMILNQWIPYLNKIGAMMTGSYIGGGVNFAALSSKLETPSEMISSTVVADNSVMALYFMLLIALPSLPLIKKQFKSDYESKSTPESQQAYWEPKKIQLLDIAFSIASAVTLVAVSFKGADLIQQWMPQHNVVLTLIVSFLGDPYLLLTTLTLIVVAVWGDFFESLAGASEIGTFLIYIFFVVIGTPASFATIITTAPLLFIFVIIILVFNLGLSLIFGKIFGFKIEEILLASNATAGGPTTAAALAIGKGWTKVVGPILIIGTLGYVIGNYAGTLMYQLLTYLG | failed
MAYVTLYPNLILEALGKVRYPGTGKDLVSAGMVEDDIRIDGNKVSFSLIFDKANDPFIKSVVKAAESAILTYISEDVNIKGNISVKSKQAIPAPPAKLLPGVKNIIAVFSGKGGVGKSTVTANLAVSLAKSGYRVGLLDADIFGPSMPKMFHCEESRPVLEEVDGRELIVPEEVMGVKILSIGFFVDPDNAVLWRGSMAGNALTQLIRDANWGELDYFLIDMPPGTSDIHLTLVQTLAITGAVVVTTPQDVALADARKGISMFVGEKINVPVLGLVENMSWFTPAELPQNKYYIFGRDGGKNLAEELNIPLLGQIPLVQGICQSGDEGIPVAVRDDSMMGIAFRELAARVVEQVDYRNEHLDPTKVVEVAHR | failed

Source: a protein production outcome set (Wang et al. 2014)
